Assay results published in patent US20250368745A1 (published 2025).
Residue numbers refer to the chain shown, from its start. Numbers in names are those of the source. Where “and” joins values, the source holds several entries; their conditions need not be identical. Equal entries are not always repeated.

B1: SA301a HC-Y59D (antibody, name in Kabat numbering, V domains shown)
VH: QVQLQESGPGLVKPSQTLSLTCTVSGYSITSDYNSHWIRQPPGKGLEWIGYIHYSGSTNDNPSLKSRVTISRDTSKNQFSLKLSSVTAADTAVYYCARNYGSIYVNYFDYWGQGTLVTVSS
VL: EIVLTQSPATLSLSPGERATLSCSASSSVSYMYWYQQKPGQAPRPLIYRTSNLASGIPARFSGSGSGTDFTLTISSLEPEDFAVYYCQQYHSYPTFGGGTKVEIK
notes: IgG1 kappa
B2: SA301a HC-Y59G (antibody, name in Kabat numbering, V domains shown)
VH: B1 VH with D60G
VL: B1 VL
notes: IgG1 kappa
B3: SA301a HC-Y59V (antibody, name in Kabat numbering, V domains shown)
VH: B1 VH with D60V
VL: B1 VL
notes: IgG1 kappa
B4: SA301a HC-Y59S (antibody, name in Kabat numbering, V domains shown)
VH: B1 VH with D60S
VL: B1 VL
notes: IgG1 kappa
B5: SA301a HC-Y59P (antibody, name in Kabat numbering, V domains shown)
VH: B1 VH with D60P
VL: B1 VL
notes: IgG1 kappa
B6: SA301a HC-Y59Q (antibody, name in Kabat numbering, V domains shown)
VH: B1 VH with D60Q
VL: B1 VL
notes: IgG1 kappa
B7: SA301a HC-Y59T (antibody, name in Kabat numbering, V domains shown)
VH: B1 VH with D60T
VL: B1 VL
notes: IgG1 kappa
B8: SA301a HC-Y59F (antibody, name in Kabat numbering, V domains shown)
VH: B1 VH with D60F
VL: B1 VL
notes: IgG1 kappa
B9: SA301a HC-Y59K (antibody, name in Kabat numbering, V domains shown)
VH: B1 VH with D60K
VL: B1 VL
notes: IgG1 kappa
B10: SA301a HC-Y59R (antibody, name in Kabat numbering, V domains shown)
VH: B1 VH with D60R
VL: B1 VL
notes: IgG1 kappa
B11: SA301a HC-Y59E (antibody, name in Kabat numbering, V domains shown)
VH: B1 VH with D60E
VL: B1 VL
notes: IgG1 kappa
B12: SA301a HC-Y59N (antibody, name in Kabat numbering, V domains shown)
VH: B1 VH with D60N
VL: B1 VL
notes: IgG1 kappa
B13: SA301a HC-Y59L (antibody, name in Kabat numbering, V domains shown)
VH: B1 VH with D60L
VL: B1 VL
notes: IgG1 kappa
B14: SA302a HC-T30V (antibody, V domains shown)
VH: B1 VH with T30V, S35A, D60Y
VL: B1 VL
B15: SA302a HC-T30Y (antibody, V domains shown)
VH: B1 VH with T30Y, S35A, D60Y
VL: B1 VL
B16: SA302a HC-T30N (antibody, V domains shown)
VH: B1 VH with T30N, S35A, D60Y
VL: B1 VL
B17: SA302a HC-T30A (antibody, V domains shown)
VH: B1 VH with T30A, S35A, D60Y
VL: B1 VL
B18: SA302a HC-T30E (antibody, V domains shown)
VH: B1 VH with T30E, S35A, D60Y
VL: B1 VL
B19: SA302a HC-S31F (antibody, V domains shown)
VH: B1 VH with S31F, S35A, D60Y
VL: B1 VL
B20: SA302a HC-S31T (antibody, V domains shown)
VH: B1 VH with S31T, S35A, D60Y
VL: B1 VL
B21: SA302a HC-T30S (antibody, V domains shown)
VH: B1 VH with T30S, S35A, D60Y
VL: B1 VL
B22: SA302a HC-S31N (antibody, V domains shown)
VH: B1 VH with S31N, S35A, D60Y
VL: B1 VL
B23: SA302a HC-S31Y (antibody, V domains shown)
VH: B1 VH with S31Y, S35A, D60Y
VL: B1 VL
B24: SA302a HC-S31I (antibody, V domains shown)
VH: B1 VH with S31I, S35A, D60Y
VL: B1 VL
B25: SA302a HC-T30L (antibody, V domains shown)
VH: B1 VH with T30L, S35A, D60Y
VL: B1 VL
B26: SA302a HC-S31L (antibody, V domains shown)
VH: B1 VH with S31L, S35A, D60Y
VL: B1 VL
B27: SA302a HC-S31H (antibody, V domains shown)
VH: B1 VH with S31H, S35A, D60Y
VL: B1 VL
B28: SA302a HC-T30M (antibody, V domains shown)
VH: B1 VH with T30M, S35A, D60Y
VL: B1 VL
B29: SA302a HC-T30Q (antibody, V domains shown)
VH: B1 VH with T30Q, S35A, D60Y
VL: B1 VL
B30: SA302a HC-T30I (antibody, V domains shown)
VH: B1 VH with T30I, S35A, D60Y
VL: B1 VL
B31: SA302a HC-S31G (antibody, V domains shown)
VH: B1 VH with S31G, S35A, D60Y
VL: B1 VL
B32: SA302a HC-T30F (antibody, V domains shown)
VH: B1 VH with T30F, S35A, D60Y
VL: B1 VL
B33: SA302a HC-S31V (antibody, V domains shown)
VH: B1 VH with S31V, S35A, D60Y
VL: B1 VL
B34: SA302a HC-T30G (antibody, V domains shown)
VH: B1 VH with T30G, S35A, D60Y
VL: B1 VL
B35: SA302a HC-D33Y (antibody, V domains shown)
VH: B1 VH with D32Y, S35A, D60Y
VL: B1 VL
notes: IgG1 kappa
B36: SA302a HC-D33E (antibody, V domains shown)
VH: B1 VH with D32E, S35A, D60Y
VL: B1 VL
notes: IgG1 kappa
B37: SA302a HC-H35P (antibody, V domains shown)
VH: B1 VH with S35A, H36P, D60Y
VL: B1 VL
notes: IgG1 kappa
B38: SA302a HC-H35M (antibody, V domains shown)
VH: B1 VH with S35A, H36M, D60Y
VL: B1 VL
notes: IgG1 kappa
B39: SA302a HC-H35E (antibody, V domains shown)
VH: B1 VH with S35A, H36E, D60Y
VL: B1 VL
notes: IgG1 kappa
B40: SA302a HC-D33T (antibody, V domains shown)
VH: B1 VH with D32T, S35A, D60Y
VL: B1 VL
notes: IgG1 kappa
B41: SA302a HC-H35A (antibody, V domains shown)
VH: B1 VH with S35A, H36A, D60Y
VL: B1 VL
notes: IgG1 kappa
B42: SA302a HC-H35T (antibody, V domains shown)
VH: B1 VH with S35A, H36T, D60Y
VL: B1 VL
notes: IgG1 kappa
B43: SA302a HC-D33Q (antibody, V domains shown)
VH: B1 VH with D32Q, S35A, D60Y
VL: B1 VL
notes: IgG1 kappa
B44: SA302a HC-D33V (antibody, V domains shown)
VH: B1 VH with D32V, S35A, D60Y
VL: B1 VL
notes: IgG1 kappa
B45: SA302a HC-D33G (antibody, V domains shown)
VH: B1 VH with D32G, S35A, D60Y
VL: B1 VL
notes: IgG1 kappa
B46: SA302a HC-H35K (antibody, V domains shown)
VH: B1 VH with S35A, H36K, D60Y
VL: B1 VL
notes: IgG1 kappa
B47: SA302a HC-H35V (antibody, V domains shown)
VH: B1 VH with S35A, H36V, D60Y
VL: B1 VL
notes: IgG1 kappa

Each binder was assayed against T1, human IL-18BP (human, UniProt O95998 31-194) (assay: BLI, apparent KD).
T1 construct: UniProt printed as 095998; also called hIL-18BP
T1 sequence: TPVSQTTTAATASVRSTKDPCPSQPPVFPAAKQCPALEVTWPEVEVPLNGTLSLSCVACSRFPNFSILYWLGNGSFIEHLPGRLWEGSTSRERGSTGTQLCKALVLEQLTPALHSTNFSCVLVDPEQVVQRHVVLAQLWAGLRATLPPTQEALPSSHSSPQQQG
For B1, the Kd was 1.25 nM and 0.63 nM. In the case of B2, the Kd is reported as 1.59 nM. B3 gave a Kd of 0.38 nM. In the case of B4, the Kd is reported as 1.57 nM. Work on B5 yielded a Kd of 0.08 nM. B6 was tested, and the Kd was 0.35 nM. Work on B7 yielded a Kd of 0.14 nM. B8 gave a Kd of 0.87 nM. B9 showed a Kd of 0.12 nM. For B10, the Kd was 0.42 nM. Work on B11 yielded a Kd of 0.18 nM. B12 showed a Kd of 0.79 nM. For B13, the Kd was 0.42 nM.

Target: T1, human IL-18BP
Assay: BLI, apparent KD
Remark: another data set of the same source
B14 was tested, and the Kd was 1.08 nM. Binder B15 has a Kd of 1.15 nM. B16 was tested, and the Kd was 1.5 nM. In the case of B17, the Kd is reported as 1.32 nM. B18 was tested, and the Kd was 2.08 nM. B19 was tested, and the Kd was 0.79 nM. With B20 the Kd was 1.02 nM. B21 was tested, and the Kd was 0.66 nM. B22 showed a Kd of 0.98 nM. B23 showed a Kd of 1.11 nM. In the case of B24, the Kd is reported as 1.01 nM. B25 showed a Kd of 1.22 nM. Work on B26 yielded a Kd of 0.98 nM. B27 showed a Kd of 0.57 nM. B28 showed a Kd of 1.54 nM. Work on B29 yielded a Kd of 1.28 nM. Work on B30 yielded a Kd of 1.79 nM. B31 showed a Kd of 1.64 nM. With B32 the Kd was 1.29 nM. B33 showed a Kd of 1.09 nM. In the case of B34, the Kd is reported as 1.38 nM. B35 was tested, and the Kd was 3.79 nM. B36 showed a Kd of 1.76 nM. B37 was tested, and the Kd was 0.88 nM. B38 gave a Kd of 2.18 nM. With B39 the Kd was 1.57 nM. With B40 the Kd was 5.17 nM and 8.95 nM. In the case of B41, the Kd is reported as 6.41 nM. Work on B42 yielded a Kd of 2.23 nM. For B43, the Kd was 2.92 nM. Work on B44 yielded a Kd of 5.42 nM. For B45, the Kd was 3.95 nM. With B46 the Kd was 0.44 nM. B47 was tested, and the Kd was 2.42 nM.
